Biological target: mare1_human MAPRE1 (UniProt Q15691)
Sequence (Q15691 whole entry): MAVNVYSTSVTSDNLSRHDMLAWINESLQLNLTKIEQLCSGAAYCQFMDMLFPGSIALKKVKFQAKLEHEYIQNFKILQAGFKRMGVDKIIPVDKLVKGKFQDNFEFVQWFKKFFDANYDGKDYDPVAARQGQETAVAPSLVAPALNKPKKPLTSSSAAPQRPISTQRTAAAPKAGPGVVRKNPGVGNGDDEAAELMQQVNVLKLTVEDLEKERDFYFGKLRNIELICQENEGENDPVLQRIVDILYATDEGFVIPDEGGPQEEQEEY

effect of a mutation on the interaction: decreasing interaction
Substance: Dystonin (Homo sapiens), Q03001 I7552N;P7553N
